Consider 40 sequences from the nanobody polyreactivity screen of Harvey et al. (2022).

A short description of the series: yeast display, Sf9 membrane polyspecificity reagent, FACS + sequencing; frameworks hold sequencing errors. In short, it runs like this:
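After 36–48 hours of galactose induction, yeast (Saccharomyces cerevisiae BJ5465) displaying a synthetic nanobody library were stained at 4 °C for 1 hour with 10% biotinylated, detergent-solubilized Sf9 membrane reagent. Streptavidin microbeads enriched the stained cells before FACS sorting into low and high (top ~1%) gates on anti-HA and streptavidin fluorescence. Each clone's polyreactivity label reflects its gate of origin.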
With “QVQLVESGGGLVQAGGRLRLSCAPSGTTFNPYTMGLYRQAPGKEGELVATITRIGGSTYYADSVKGRFTISRDNAKNTVYLQMNSLKPEDTAVYYCAADHYRSVRWRSNYTYRVNYWGQGTQVTVSS”, the “polyreactivity (PSR sort gate)” value is listed as “high polyreactivity”.

“QVQLVESGGGLVQAGGRLRLSCASSGITFWTYAMGWYRQAPGKERELVAAISKSGGSTYYADSVKGRYTISRDNAKNNVYFELNSLKPEDTAVYYCAAKGLRYRDIDYDYWGQGTQVTVSS”: the “polyreactivity (PSR sort gate)” value is “low polyreactivity”.

Turning to “QVQLVESGGGLVQAGGRLRLSSAASGRTFFGSYAMGWYRQAPGKERELVADIRSGGNTNYADSVKGRFTISRDNAKNTVYLQMNRLKPDDTAVYYCASDGYSIVVYHPDYRYVYWGQGTQLTVSS”, the “polyreactivity (PSR sort gate)” value is recorded as “low polyreactivity”.

Consider “QVQLVESGGGLVQAGGRLRLTCAASGFTFRYYAMGWYRQAPGKERELVATITRGGSTNYAESVKWRFTISRDNAKNTVYFQMNSLKPEDTAVYYCATGKIYWRGYEYWGQGTQVTVSS”, for which the “polyreactivity (PSR sort gate)” value was “high polyreactivity”.

On to “QVQLVESGGGLVQAGGRLSLSCAASGITFLGYAMGWYREAPGKDSELVAAISSGGSTYYADSVKGRFTISRDNAKNTVYLQMNILKPEDTAVYYCAKAVYYRDPYGGDYWGQGTQVTVSS”, for which the “polyreactivity (PSR sort gate)” value is listed as “low polyreactivity”.

Regarding “QVQLVESGGGLVQAGGRLSLSSAASGITFRNYAMGWYRQAPGKERQLVAAISRRGGSTYYADSVKGRFTISRDNAKNTVYLQMNSLKPEDTAVYYCAKSPDTAKEYDYWGQGTQVTVSS”, the “polyreactivity (PSR sort gate)” value is “high polyreactivity”.

As to “QVQLVESGGGLVQAGGSFRLSCAASGGTFDTYVMGWYRQAPGKERELVAVITRGASTYYADSVKGRFTISRDNAKNTVYLQMNSLKPEDTAVYYCAAAVYSPDYYRFWYSFDYWGQGTQVTVTS”, the “polyreactivity (PSR sort gate)” value was “low polyreactivity”.

Take “QVQLVESGGGLVQAGGSFRLSCAASGRIFSPNAMGWYRQAPGKEREFVAAINDRGGNTYYADSVKGRFTISRDNAKNTVYLQMNSLKPEDTAVYYCAATVTVFYTRYYYWGQGTQVTVSS”: the “polyreactivity (PSR sort gate)” value is reported as “high polyreactivity”.

“QVQLVESGGGLVQAGGSGRLSCAASGSIFFAYGMGWYRQATGTERELVAAIPNSGTSTYYADSVKGRFTISRDNAKNSDYLQMNSLKPEDTAVFYCARDNEPDYYSYPYDYWGEGTQVTVSS”: the “polyreactivity (PSR sort gate)” value was “low polyreactivity”.

In the case of “QVQLVESGGGLVQAGGSHRISCAASGNTFVINTMGWYRQAPGKERELVAGISRRGTSTYYADSVKGRFTISRDNAKNTVYLQMNSLKPEDTAVYYCAVYAEIVRYEYWGQGTQVTVSS”, the “polyreactivity (PSR sort gate)” value is on record as “high polyreactivity”.

“QVQLVESGGGLVQAGGSHRLSCAASGFIFYYYTRGWYRQAPGKERELVAAISRGRGSTYYADSVKGRFTISRDNAKNTVYLQMNSLKPEDTAVYYCARTDRRLGAHQGDYWGQGTQVTVSS”: the “polyreactivity (PSR sort gate)” value is on record as “high polyreactivity”.

On to “QVQLVESGGGLVQAGGSHRLSCAASGFTSAVNTMGWYRQAPGKEREFVASISRNGGSTYYADSVKGRFTITRDNAKNTVYLQINSLKPEDTAVYYCNTRVPNYAFRRSRYDYWGQGTQVTVSS”, for which the “polyreactivity (PSR sort gate)” value was “high polyreactivity”.

“QVQLVESGGGLVQAGGSHRLSCAASGIIFGRYAMGSYIQAPGKERELVAAITSGGSTSYSDSVKGRFTISRDNAKNTVYLQMNSLKPEDTAVYYCAARGWYVRHPQNYGYWGQGTQVTVSS”: the “polyreactivity (PSR sort gate)” value is “high polyreactivity”.

Consider “QVQLVESGGGLVQAGGSHRLSCAASGIIFILYTMGWYRQAPGKERELVATISSGGGSTFYADSVKGRFTISRDNAKNTVYLQMNSLKPEDTAVYYCAAYPVFGYSYDYWGQGTQVTVSS”, for which the “polyreactivity (PSR sort gate)” value is recorded as “low polyreactivity”.

On to “QVQLVESGGGLVQAGGSHRLSCAASGLIFYYYAMGWYRQAPGKERELVAAITWTAGSTSYADSVKGRFTISRDNAKNTVYLQMNSLKPEDTAVYYCAADYRHDTFSNEYDYWGQGTQVTVSS”, for which the “polyreactivity (PSR sort gate)” value is given as “low polyreactivity”.

For the sequence “QVQLVESGGGLVQAGGSHRLSCAASGRIFGTYAMGWYRQAPGKDRELVAAISFSGGSTYYADSVKGRFTISRDNAKNTVYLQMNSLKPDDTAVYYGAAGYRTYYGYRYGYWGQGTQVTVSS”, the “polyreactivity (PSR sort gate)” value is “high polyreactivity”.

For the sequence “QVQLVESGGGLVQAGGSHRLSCAASGRIFNNNAMGWYRQAPGTEREFVAAISSGGGSTYYADSVKGRFTISRDNAKNTVYLQMNSLKPEDTAVYYCAARRHGRVDYSQGSRESYYWGQGTQVTVSS”, the “polyreactivity (PSR sort gate)” value is on record as “high polyreactivity”.

On to “QVQLVESGGGLVQAGGSHRLSCAASGRIFRGYPMGWYRPAPGKERELGAAITSRGGSTYADSVKGRFTISRDNAKNTVYLQMNSLKPEDSAVYYCNAGYRAYSAKLVFRGYPRYDYWGQGTQVTVSS”, for which the “polyreactivity (PSR sort gate)” value is recorded as “low polyreactivity”.

For “QVQLVESGGGLVQAGGSHRLSCAASGRIFRPYAMGWYRQAPGKEREFVATITRSVGRTYYADSVKGRFTISRDNAKNTVYLQMNSLKPEDTAVYYCATKYIRGTRADVYRFDYWGQGTQVTVSS”, the “polyreactivity (PSR sort gate)” value is reported as “high polyreactivity”.

“QVQLVESGGGLVQAGGSHRLSCAASGRTFAPNAMGWYRQAPGKERELVAAISSVGITYYADSVNGRFTISRDNAKNTVYLQMNSLNPEDTAVYYCAKVRKTRSITDGYGYWGQGTQVTVSS”: the “polyreactivity (PSR sort gate)” value is recorded as “low polyreactivity”.

Consider “QVQLVESGGGLVQAGGSHRLSCAASGRTFGGNVMGWYRPAHWKERELVAAISSTGDRTYYADSVKGRFTISRDNAKNTVYLQMYSLKPEDTAVYYCAARPAYRSSYYWGQGTQVTVSS”, for which the “polyreactivity (PSR sort gate)” value is recorded as “high polyreactivity”.

For “QVQLVESGGGLVQAGGSHRLSCAASGRTFKLYAMGWYRQAPGKERELVAAITESGRSTYYADSVKGRFTFSRDNAKNTVYLQMNSLKPEDTAVYYCAALGIGSYRRYSGYDYWGQGTQVTVSS”, the “polyreactivity (PSR sort gate)” value is “low polyreactivity”.

Turning to “QVQLVESGGGLVQAGGSHRLSCAASGRTFQENGMGWYRQAPGKERELVATISQRGTSTYYADSVKGRFTISRDNAKNTVYLQMNSLKPEDTAVYYCARRRVYRWYTGDYWGQGTQVTVSS”, the “polyreactivity (PSR sort gate)” value is given as “low polyreactivity”.

With “QVQLVESGGGLVQAGGSHRLSCAASGRTFRINAMGWYRQAPGKERELVAAISRSGGSTYYADSVKGRFTISRDNAKNTVYLQMTSVKPEDTAVYYCAARPYYTWRYLPTKSGDYWGQGTLVTVSS”, the “polyreactivity (PSR sort gate)” value is “low polyreactivity”.

On to “QVQLVESGGGLVQAGGSHRLSCAASGRTFYQNAMGWYRQAPGKERELVATISQRGGSTYYADSVKGRFTISRDTAKNTVYLQMNSLKPEDTAVYYCAKGRYAYSIWDDYWGQGTQVTVSS”, for which the “polyreactivity (PSR sort gate)” value is recorded as “low polyreactivity”.

For the sequence “QVQLVESGGGLVQAGGSHRLSCAASGRTFYRYVMGWYRQAPGKERELVAAIRSSGTSTYYADSVKGRFTISRDNAKNTVYLQINSLKPEDTAVNYCARDSYRGYVYSLDYWGQGNQVTVSS”, the “polyreactivity (PSR sort gate)” value is “high polyreactivity”.

In the case of “QVQLVESGGGLVQAGGSHRLSCAASGRTFYTNAMGWYRQEPGKERELVARIRRGGTTNYADSVKGRFTISRDNAKNTVYLQMNILKPEDTAVSYCNARRHGGVQPFYFYRNQYELDYWGLGTQVTVSS”, the “polyreactivity (PSR sort gate)” value is “high polyreactivity”.

Regarding “QVQLVESGGGLVQAGGSHRLSCAASGSIFGVYVMGWYRQAPGKERELVAAITRGASTNYADSVKGRFTISRDNAKNSVYLQMNSLKPEDTAVYYCAARQVSVSGHQYGYWGQGSQVTVSS”, the “polyreactivity (PSR sort gate)” value is “low polyreactivity”.

Regarding “QVQLVESGGGLVQAGGSHRLSCAASGSIFYQYAMGSYRQAPGKERELVAAITWIGSTYYADSVKGRFTISRDNAKNTVYLQMNSLKPEDTAVYYCNTDPYVLQKYDYWGQGTQVTVSS”, the “polyreactivity (PSR sort gate)” value was “low polyreactivity”.

Consider “QVQLVESGGGLVQAGGSHRLSCAASGSILDTYAMGWYRQAPGKERELVAAISRGGRTYYADSVKGRFTLSRDNAKNTVYLQMNSLKPEDTAVYYCNTLTRLVYDGMGYWGQGTQVTVSS”, for which the “polyreactivity (PSR sort gate)” value is recorded as “high polyreactivity”.

Regarding “QVQLVESGGGLVQAGGSHRLSCAASGSILWENAMGWYIQAPRKERELVATISVSGGGTYYADSVKGRFTISRDKAKNTDYLQMNSLKPEDTAVYYCNARYGYESQGWEDYWGQGTQVTVSS”, the “polyreactivity (PSR sort gate)” value was “low polyreactivity”.

For the sequence “QVQLVESGGGLVQAGGSHRLSCAASGSISRRYAMGWYRQAPGKERELVAAINQSGGRTYYADSVKGRFTISRDNAKNTVYLQMNSLKPEDTAVYYCAARLSGYDYWGQGTQVTVSS”, the “polyreactivity (PSR sort gate)” value is given as “high polyreactivity”.

“QVQLVESGGGLVQAGGSHRLSCAASGSTFLNNAMGWYRQAPGKERELVATITSGGITNYADSVKGRFTISRDNAKNTVYLQMNSLKPEDTAVYYCNGETWGFTYYYWGQGTQVTVSS”: the “polyreactivity (PSR sort gate)” value is reported as “low polyreactivity”.

Turning to “QVQLVESGGGLVQAGGSHRLSCAASGSTFNYYAMGWYRQAPGKERELVAAISRGGSTYYADSVKGRFTISRDNAKNTVYLQMNSLKPEDNAVYYCHARPTRIYHGMGFWGQGTQVNVSS”, the “polyreactivity (PSR sort gate)” value is “low polyreactivity”.

As for “QVQLVESGGGLVQAGGSHRLSCAASGSTFTWYPMGWYRQEPGKERELVADISYGGGSTYYADSVKGRFTISRDNAKNTVYLQMNSLKPEDTAVYYCAAESIPYYRYDYWGQGTQVTVSS”, the “polyreactivity (PSR sort gate)” value is given as “low polyreactivity”.

In the case of “QVQLVESGGGLVQAGGSHRLSCAASGSTFVLYALGWYRQAPGKERELVAVISWSGGSTYYADSVKGRFTISRDNAKNTVYLQMNSLKPEDTAVYYCAATGWSSFYYRFDYWGQGTQVTVSS”, the “polyreactivity (PSR sort gate)” value is on record as “low polyreactivity”.

“QVQLVESGGGLVQAGGSHRLSCAASGSTFVSNAMGGYRQAPGKERELVAGITFSGGSTYYADSVKGRFTISRDNAKNAVYLQMNSVKPEDTAVYYCAKRTYPSFYYWGQGTKVTVSS”: the “polyreactivity (PSR sort gate)” value was “low polyreactivity”.

For “QVQLVESGGGLVQAGGSHRLSCAASGSTLGDYAMGWYRQAPGKERELVAAISNGVSTNYADSVKGRFTISRDNAKNTVYLQKNSLKPVDTAVYYCNAGSGWGSLLEYDYWGQGTKVTVSS”, the “polyreactivity (PSR sort gate)” value is recorded as “low polyreactivity”.

On to “QVQLVESGGGLVQAGGSHRLSCAPSGRTYYMYAMGWYRPAPGKEREFVAAITSGGSRNYADSVKGRFTISRDNAKKTVYLQMNSLKPEDTAVYYWARYRGYWGRYYGVDYGYWGQGTQVTVSS”, for which the “polyreactivity (PSR sort gate)” value is recorded as “high polyreactivity”.

Take “QVQLVESGGGLVQAGGSHRLSCDSSGTFKWYAMGWYRQAPGKERELVAVISTSGGTTNYADSVKGRFTISLDNAKNTVYLQMNSLKPEDTAVYYCNAAKLFRYDYWGQGTQVTVSS”: the “polyreactivity (PSR sort gate)” value is reported as “high polyreactivity”.
